Assay results: patent US20240287154A1, “MC3R AGONIST PEPTIDES” (The Regents of the University of Michigan, priority 2021, published 2024)
Non-standard residues stand in square brackets, D forms with d. NMeH = CN[C@@H](Cc1c[nH]cn1)C(=O)O; dNle = CCCC[C@@H](N)C(=O)O; Nle = CCCC[C@H](N)C(=O)O; dNMeA = CN[C@H](C)C(=O)O; R1 = not defined here

B1: CTX-1182 (peptide)
peptide: Ac-[Nle][dNle]HFR[dW]DRFG-OH
SMILES: CCCC[C@H](NC(C)=O)C(=O)N[C@H](CCCC)C(=O)N[C@@H](Cc1c[nH]cn1)C(=O)N[C@@H](Cc1ccccc1)C(=O)N[C@@H](CCCNC(=N)N)C(=O)N[C@H](Cc1c[nH]c2ccccc12)C(=O)N[C@@H](CC(=O)O)C(=O)N[C@@H](CCCNC(=N)N)C(=O)N[C@@H](Cc1ccccc1)C(=O)NCC(=O)O
B2: CTX-1107 (peptide)
peptide: H-YV[Nle]GH[dF]R[dW]D-NH2
SMILES: CCCC[C@H](NC(=O)[C@@H](NC(=O)[C@@H](N)Cc1ccc(O)cc1)C(C)C)C(=O)NCC(=O)N[C@@H](Cc1c[nH]cn1)C(=O)N[C@H](Cc1ccccc1)C(=O)N[C@@H](CCCNC(=N)N)C(=O)N[C@H](Cc1c[nH]c2ccccc12)C(=O)N[C@@H](CC(=O)O)C(N)=O
B3: CTX-1113 (peptide)
peptide: Ac-TGH[dF]R[dW]D-NH2
SMILES: CC(=O)N[C@H](C(=O)NCC(=O)N[C@@H](Cc1c[nH]cn1)C(=O)N[C@H](Cc1ccccc1)C(=O)N[C@@H](CCCNC(=N)N)C(=O)N[C@H](Cc1c[nH]c2ccccc12)C(=O)N[C@@H](CC(=O)O)C(N)=O)[C@@H](C)O
B4: CTX-1184 (peptide)
peptide: Ac-[Nle][dP]HFR[dW]DRFG-OH
SMILES: CCCC[C@H](NC(C)=O)C(=O)N1CCC[C@@H]1C(=O)N[C@@H](Cc1c[nH]cn1)C(=O)N[C@@H](Cc1ccccc1)C(=O)N[C@@H](CCCNC(=N)N)C(=O)N[C@H](Cc1c[nH]c2ccccc12)C(=O)N[C@@H](CC(=O)O)C(=O)N[C@@H](CCCNC(=N)N)C(=O)N[C@@H](Cc1ccccc1)C(=O)NCC(=O)O
B5: CTX-1119 (peptide)
peptide: H-YV[Nle][dA]HFR[dW]DRF-NH2
SMILES: CCCC[C@H](NC(=O)[C@@H](NC(=O)[C@@H](N)Cc1ccc(O)cc1)C(C)C)C(=O)N[C@H](C)C(=O)N[C@@H](Cc1c[nH]cn1)C(=O)N[C@@H](Cc1ccccc1)C(=O)N[C@@H](CCCNC(=N)N)C(=O)N[C@H](Cc1c[nH]c2ccccc12)C(=O)N[C@@H](CC(=O)O)C(=O)N[C@@H](CCCNC(=N)N)C(=O)N[C@@H](Cc1ccccc1)C(N)=O
B6: CTX-1112 (peptide)
peptide: Ac-TGHFR[dW]D-NH2
SMILES: CC(=O)N[C@H](C(=O)NCC(=O)N[C@@H](Cc1c[nH]cn1)C(=O)N[C@@H](Cc1ccccc1)C(=O)N[C@@H](CCCNC(=N)N)C(=O)N[C@H](Cc1c[nH]c2ccccc12)C(=O)N[C@@H](CC(=O)O)C(N)=O)[C@@H](C)O
B7: CTX-1185 (peptide)
peptide: Ac-[Nle]GHFR[dW]DRFG-OH
SMILES: CCCC[C@H](NC(C)=O)C(=O)NCC(=O)N[C@@H](Cc1c[nH]cn1)C(=O)N[C@@H](Cc1ccccc1)C(=O)N[C@@H](CCCNC(=N)N)C(=O)N[C@H](Cc1c[nH]c2ccccc12)C(=O)N[C@@H](CC(=O)O)C(=O)N[C@@H](CCCNC(=N)N)C(=O)N[C@@H](Cc1ccccc1)C(=O)NCC(=O)O
B8: CTX-1186 (peptide)
peptide: Ac-[Nle][dA][NMeH]FR[dW]DRFG-OH
SMILES: CCCC[C@H](NC(C)=O)C(=O)N[C@H](C)C(=O)N(C)[C@@H](Cc1c[nH]cn1)C(=O)N[C@@H](Cc1ccccc1)C(=O)N[C@@H](CCCNC(=N)N)C(=O)N[C@H](Cc1c[nH]c2ccccc12)C(=O)N[C@@H](CC(=O)O)C(=O)N[C@@H](CCCNC(=N)N)C(=O)N[C@@H](Cc1ccccc1)C(=O)NCC(=O)O
B9: CTX-1181 (peptide)
peptide: Ac-[Nle][dV]HFR[dW]DRFG-OH
SMILES: CCCC[C@H](NC(C)=O)C(=O)N[C@@H](C(=O)N[C@@H](Cc1c[nH]cn1)C(=O)N[C@@H](Cc1ccccc1)C(=O)N[C@@H](CCCNC(=N)N)C(=O)N[C@H](Cc1c[nH]c2ccccc12)C(=O)N[C@@H](CC(=O)O)C(=O)N[C@@H](CCCNC(=N)N)C(=O)N[C@@H](Cc1ccccc1)C(=O)NCC(=O)O)C(C)C
B10: CTX-1121 (peptide)
peptide: Ac-V[Nle][dA]HFR[dW]DRFG-OH
SMILES: CCCC[C@H](NC(=O)[C@@H](NC(C)=O)C(C)C)C(=O)N[C@H](C)C(=O)N[C@@H](Cc1c[nH]cn1)C(=O)N[C@@H](Cc1ccccc1)C(=O)N[C@@H](CCCNC(=N)N)C(=O)N[C@H](Cc1c[nH]c2ccccc12)C(=O)N[C@@H](CC(=O)O)C(=O)N[C@@H](CCCNC(=N)N)C(=O)N[C@@H](Cc1ccccc1)C(=O)NCC(=O)O
B11: CTX-1146 (peptide)
peptide: Ac-[Nle][dA]HFR[dW]D[dR]FG-OH
SMILES: CCCC[C@H](NC(C)=O)C(=O)N[C@H](C)C(=O)N[C@@H](Cc1c[nH]cn1)C(=O)N[C@@H](Cc1ccccc1)C(=O)N[C@@H](CCCNC(=N)N)C(=O)N[C@H](Cc1c[nH]c2ccccc12)C(=O)N[C@@H](CC(=O)O)C(=O)N[C@H](CCCNC(=N)N)C(=O)N[C@@H](Cc1ccccc1)C(=O)NCC(=O)O
B12: CTX-1111 (peptide)
peptide: Ac-SGH[dF]R[dW]D-NH2
SMILES: CC(=O)N[C@@H](CO)C(=O)NCC(=O)N[C@@H](Cc1c[nH]cn1)C(=O)N[C@H](Cc1ccccc1)C(=O)N[C@@H](CCCNC(=N)N)C(=O)N[C@H](Cc1c[nH]c2ccccc12)C(=O)N[C@@H](CC(=O)O)C(N)=O
B13: CTX-1123 (peptide)
peptide: Ac-[Nle][dA]HFR[dW]D-NH2
SMILES: CCCC[C@H](NC(C)=O)C(=O)N[C@H](C)C(=O)N[C@@H](Cc1c[nH]cn1)C(=O)N[C@@H](Cc1ccccc1)C(=O)N[C@@H](CCCNC(=N)N)C(=O)N[C@H](Cc1c[nH]c2ccccc12)C(=O)N[C@@H](CC(=O)O)C(N)=O
B14: CTX-1109 (peptide)
peptide: H-YV[Nle][dA]H[dF]R[dW]D-NH2
SMILES: CCCC[C@H](NC(=O)[C@@H](NC(=O)[C@@H](N)Cc1ccc(O)cc1)C(C)C)C(=O)N[C@H](C)C(=O)N[C@@H](Cc1c[nH]cn1)C(=O)N[C@H](Cc1ccccc1)C(=O)N[C@@H](CCCNC(=N)N)C(=O)N[C@H](Cc1c[nH]c2ccccc12)C(=O)N[C@@H](CC(=O)O)C(N)=O
B15: CTX-1183 (peptide)
peptide: Ac-[Nle][dNMeA]HFR[dW]DRFG-OH
SMILES: CCCC[C@H](NC(C)=O)C(=O)N(C)[C@H](C)C(=O)N[C@@H](Cc1c[nH]cn1)C(=O)N[C@@H](Cc1ccccc1)C(=O)N[C@@H](CCCNC(=N)N)C(=O)N[C@H](Cc1c[nH]c2ccccc12)C(=O)N[C@@H](CC(=O)O)C(=O)N[C@@H](CCCNC(=N)N)C(=O)N[C@@H](Cc1ccccc1)C(=O)NCC(=O)O
B16: CTX-1106 (peptide)
peptide: H-YVE[dA]H[dF]R[dW]DRFG-OH
SMILES: CC(C)[C@H](NC(=O)[C@@H](N)Cc1ccc(O)cc1)C(=O)N[C@@H](CCC(=O)O)C(=O)N[C@H](C)C(=O)N[C@@H](Cc1c[nH]cn1)C(=O)N[C@H](Cc1ccccc1)C(=O)N[C@@H](CCCNC(=N)N)C(=O)N[C@H](Cc1c[nH]c2ccccc12)C(=O)N[C@@H](CC(=O)O)C(=O)N[C@@H](CCCNC(=N)N)C(=O)N[C@@H](Cc1ccccc1)C(=O)NCC(=O)O

These binders were tested against human MC3R (human, UniProt P41968 1-323) (assay: cell-based or functional assay).
Sequence of human MC3R (P41968 whole entry): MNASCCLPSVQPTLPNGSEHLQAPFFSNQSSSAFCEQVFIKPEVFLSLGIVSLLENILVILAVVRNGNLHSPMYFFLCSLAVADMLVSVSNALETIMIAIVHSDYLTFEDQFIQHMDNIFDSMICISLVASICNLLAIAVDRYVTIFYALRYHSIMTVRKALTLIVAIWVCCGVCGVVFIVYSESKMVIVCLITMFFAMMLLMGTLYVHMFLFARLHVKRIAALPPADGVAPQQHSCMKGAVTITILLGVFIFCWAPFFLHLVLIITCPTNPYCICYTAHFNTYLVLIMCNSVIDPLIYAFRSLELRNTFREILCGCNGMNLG

Row | MC3R cAMP (EC50) | MC3R selectivity (relative to MC4R) | Binder
1 | 710 nM | 6800 | R1-V[Nle][dA]HFR[dW]DRFG-OH (reading uncertain) [CTX-1149 (R1, SEQ ID NO 66)]
2 | 14.6 nM | 1410 | B1
3 | 1.2 nM | 59 | YVXAHFRWDRFG (Nle at 3; D-Ala at 4; D-Trp at 8; C-terminal amide) [CTX-1118]
4 | 4.4 nM | 2.4 | B2
5 | 4430 nM | 0.4 | B3
6 | 607 nM | 28 | B4
7 | 1.9 nM | 24 | B5
8 | 4090 nM | 8.6 | B6
9 | 2.7 nM | 2310 | B7
10 | 1.7 nM | 69 | YVXAHFRWDRFG (NMe-Tyr at 1; Nle at 3; D-Ala at 4; D-Trp at 8) [CTX-1124]
11 | 1.7 nM | 747 | YVXAHFRWDRFG (D-Tyr at 1; Nle at 3; D-Ala at 4; D-Trp at 8) [CTX-1125]
12 | 200 nM | 1880 | B8
13 | 102 nM | 718 | B9
14 | 7400 nM | – | Ac-SGHFR[dW]D-NH2 [CTX-1110]
15 | 3.1 nM | 2120 | B10
16 | 3.5 nM | 27 | YVXAHFRWDRFG (Nle at 3; D-Ala at 4; D-Phe at 6; D-Trp at 8) [CTX-1104]
17 | 1.9 nM | 37 | YVXFHFRWDRFG (Nle at 3; D-Phe at 4; D-Trp at 8) [CTX-1136]
18 | 170 nM | – | B11
19 | 17100 nM | 0.1 | B12
20 | 213 nM | 28 | B13
21 | 952 nM | 22 | Ac-[Nle][dA]HFR[dW]DR[dF]K(R1)-OH (reading uncertain) [CTX-1161]
22 | 13.1 nM | 10.6 | B14
23 | 71.6 nM | 515 | B15
24 | 1.4 nM | 7.4 | YVXAHFRWDRFG (Nle at 3; D-Trp at 8) [CTX-1133]
25 | 5.8 nM | 120 | B16
